Patent US20160200763A1 (RAMOT AT TEL AVIV UNIVERSITY, published 2016)
Square brackets hold non-standard residues; d marks the D form. Ends that are not written are not given here. * marks the point of attachment. Myristoyl = CCCCCCCCCCCCCC(=O)*; pS = N[C@@H](COP(=O)(O)O)C(=O)O

B1: L803 (peptide)
peptide: KEAPPAPPQ[pS]P
B2: L807 (peptide)
peptide: KEAPPSPPQ[pS]P
B3: L803-mts (peptide)
peptide: Myristoyl-GKEAPPAPPQ[pS]P

target: Bacterially expressed Purified GSK-3β Wild-Type (WT) (human, UniProt P49841 1-420); assay: cell-based or functional assay
Sequence (P49841 other isoform, or with tags, fused parts or gaps limits assumed): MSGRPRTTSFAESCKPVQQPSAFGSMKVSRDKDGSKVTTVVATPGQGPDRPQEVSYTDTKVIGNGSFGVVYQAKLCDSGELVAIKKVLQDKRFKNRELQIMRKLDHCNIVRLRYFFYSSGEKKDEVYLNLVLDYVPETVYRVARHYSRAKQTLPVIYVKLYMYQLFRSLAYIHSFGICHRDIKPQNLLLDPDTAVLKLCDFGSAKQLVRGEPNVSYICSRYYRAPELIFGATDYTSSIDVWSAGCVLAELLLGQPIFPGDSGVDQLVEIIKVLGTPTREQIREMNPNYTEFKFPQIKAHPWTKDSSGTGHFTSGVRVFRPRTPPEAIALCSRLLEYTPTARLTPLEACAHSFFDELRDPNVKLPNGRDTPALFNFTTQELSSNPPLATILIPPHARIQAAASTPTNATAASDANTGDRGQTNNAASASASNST

First: B1
Second: B2
The “IC50, inhibition of GSK-3β phosphorylation of pIRS-1 (in vitro kinase assay)” value of the first is higher: 200 µM for the first, 16 µM for the second.

In the case of B3, the “IC50, inhibition of GSK-3β phosphorylation of pIRS-1 (in vitro kinase assay)” value is reported as 40 µM.
